# Laboratory results taken from paper PMC4908968.
# Experiments:
# [1] = molecular target: Full-length (FL) MMTV integrase (IN), wild type (mouse mammary tumor virus (MMTV)); test: AUC
# [2] = molecular target: Full-length (FL) MMTV integrase (IN), wild type (mouse mammary tumor virus (MMTV)); test: SEC
substance,measurement,setting,value
"Full-length (FL) MMTV integrase (IN), wild type (enzyme)",stoichiometry N,[1],8
same,stoichiometry N,[2],2
